We go through two substances from patent publication US20190382504A1.

What all share (experiment): FACS, peptide-pulsed T2 cells
Test [1] concerns the target ESO157 A1 peptide (…)/HLA-A*02:01 complex on T2 cells (human).
Test [2] deals with ESO157 A3 peptide (…)/HLA-A*02:01 complex on T2 cells (human).
Test [3] addresses ESO157 A4 peptide (…)/HLA-A*02:01 complex on T2 cells (human).
The target in test [4] is ESO157 A5 peptide (…)/HLA-A*02:01 complex on T2 cells (human).
Test [5] has as its target ESO157 A6 peptide (…)/HLA-A*02:01 complex on T2 cells (human).
The target in test [6] is ESO157 A7 peptide (…)/HLA-A*02:01 complex on T2 cells (human).
Test [7] deals with ESO157 A8 peptide (…)/HLA-A*02:01 complex on T2 cells (human).
Test [8] concerns the target ESO157 wild type peptide (…)/HLA-A*02:01 complex on cells (human).
Test [9] has as its target HLA-A*02:01 on T2 cells without peptide loading (human).

With KO7 helper phage, the MFI in [1] is 92; in test [2] it was 100; in test [3] it was 97; in [4], 101; in [5] it was 91; in test [6], 84. Besides, the MFI was found to be 94 in test [7], 136 in test [8] and 97 in test [9].

As to antibody BB7.2, the MFI was 67000 in [1]; 66100 in [2]; 60300 in [3]; 59000 in test [4]; 55800 in test [5]; 72900 in test [6]. In addition, the MFI in [7] came to 75000; in test [8] it was 76000; in test [9], 53100.
